Columns and labels:
Experiment in all cases: cell-based or functional assay
[1] = target: PSMA on C42B and LNCap cells (UniProt Q04609 1-750, limits assumed)
KLK2 on VCaP cells [2] = target: T1, KLK2 on VCaP cells (UniProt P20151 25-261, limits assumed)
KLK2 on VCaP cells [3] = target: T1, KLK2 on VCaP cells; remark: listed apart in the source

T1 sequence (P20151 25-261 limits assumed): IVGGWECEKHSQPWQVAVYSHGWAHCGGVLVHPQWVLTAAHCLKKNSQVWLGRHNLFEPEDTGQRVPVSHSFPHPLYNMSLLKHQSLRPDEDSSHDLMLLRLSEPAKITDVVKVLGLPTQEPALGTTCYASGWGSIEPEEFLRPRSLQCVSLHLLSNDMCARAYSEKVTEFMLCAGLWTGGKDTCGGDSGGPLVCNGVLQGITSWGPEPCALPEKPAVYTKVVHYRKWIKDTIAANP
PSMA on C42B and LNCap cells, sequence (Q04609 whole entry): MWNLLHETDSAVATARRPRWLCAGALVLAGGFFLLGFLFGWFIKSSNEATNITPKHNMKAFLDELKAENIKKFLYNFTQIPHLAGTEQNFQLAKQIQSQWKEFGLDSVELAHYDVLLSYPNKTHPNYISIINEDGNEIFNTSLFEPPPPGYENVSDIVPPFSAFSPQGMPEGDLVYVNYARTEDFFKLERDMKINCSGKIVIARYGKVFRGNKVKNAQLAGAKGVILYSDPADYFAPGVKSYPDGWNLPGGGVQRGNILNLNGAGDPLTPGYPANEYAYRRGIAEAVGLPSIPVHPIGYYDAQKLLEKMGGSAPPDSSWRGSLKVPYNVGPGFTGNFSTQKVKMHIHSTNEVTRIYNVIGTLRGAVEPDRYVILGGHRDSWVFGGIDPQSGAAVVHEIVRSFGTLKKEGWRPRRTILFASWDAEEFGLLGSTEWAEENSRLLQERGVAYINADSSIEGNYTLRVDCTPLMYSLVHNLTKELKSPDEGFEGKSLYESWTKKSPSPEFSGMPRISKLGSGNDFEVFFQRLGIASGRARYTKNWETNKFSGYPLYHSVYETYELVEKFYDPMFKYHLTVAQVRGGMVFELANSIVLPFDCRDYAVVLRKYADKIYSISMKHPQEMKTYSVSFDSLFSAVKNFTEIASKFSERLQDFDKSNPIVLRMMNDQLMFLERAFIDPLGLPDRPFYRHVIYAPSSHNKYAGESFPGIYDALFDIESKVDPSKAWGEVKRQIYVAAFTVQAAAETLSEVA

Row | Binder | In vitro ADCC killing EC50 (M), NK cells at 24 hour, C42B cells [1] | In vitro ADCC killing EC50 (M), NK cells at 24 hour, LNCap cells [1] | In vitro ADCC killing EC50 (M), PBMC at 6 hour, C42B cells [1] | In vitro ADCC killing EC50 (M), PBMC at 6 hour, LNCap cells [1] | ADCC activity, percent cell killing of VcaP cells by PBMC (KLK2 on VCaP cells [2]) | EC50 (M), in vitro ADCC dose-response killing by PBMC on VcaP cells at 48 hour (KLK2 on VCaP cells [3])
1 | PSMB952 (antibody, V domains shown) VH: EVQLVESGGGLVQPGGSLRLSCAASGFTFSSYAMSWVRQAPGKGLEWVSAISGGIGSTYYADSVKGRFTISRDNSKNTLWLQMNSLRAEDTAVYYCAKDGVGATPYYFDYWGQGTLVTVSS VL: QSVLTQPPSVSAAPGQKVTISCSGSSSNIGINYVSWYQQLPGTAPKLLIYDNNKRPSGIPDRFSGSKSGTSATLGITGLQTGDEADYYCGTWDSSLSAVVFGGGTKLTVL | 2.45e-11 M | 4.59e-11 M | 3.51e-10 M | 2.01e-10 M | – | –
2 | PSMB956 (antibody, V domains shown) VH: EVQLVESGGGLVQPGGSLRLSCAASGFTFSSYAMSWVRQAPGKGLEWVSAISGGSGSTYYADSVKGRFTISRDNSKNTLYLQMNSLRAEDSAVYYCAKDGVGATPYYFDYWGQGTLVTVSS VL: QSVLTQPPSVSAAPGQKVTISCSGSSSNIGINYVSWYQQLPGTAPKLLIYDNNKRPSGIPDRFSGSKSGTSATLGITGLQTGDEADYYCGTWDSSLSAVVFGGGTKLTVL | 9.96e-12 M | 3.58e-11 M | 4.23e-10 M | 1.52e-10 M | – | –
3 | KL2B870 (KL2B30 in hIgG1-RE) (antibody) heavy: not shown light: DIQMTQSPSFLSASVGDRVTITCRASQGISSYLAWYQQKPGKAPKFLIYAASTLQSGVPSRFSGSGSGTEFTLTISSLQPEDFATYYCQQLNSYPLTFGGGTKVEIKRTVAAPSVFIFPPSDEQLKSGTASVVCLLNNFYPREAKVQWKVDNALQSGNSQESVTEQDSKDSTYSLSSTLTLSKADYEKHKVYACEVTHQGLSSPVTKSFNRGEC | – | – | – | – | ~73% | 1e-09 M
4 | KL2B872.CLF (antibody, human IgG1, kappa, low fucosylation of the Asn-297-linked N-oligosaccharide (expressed in fucosylation-deficient cells)) heavy: not shown light: DIQMTQSPSFLSASVGDRVTITCRASQGISSYLAWYQQKPGKAPKFLIYAASTLQSGVPSRFSGSGSGTEFTLTISSLQPEDFATYYCQQLNSYPLTFGGGTKVEIKRTVAAPSVFIFPPSDEQLKSGTASVVCLLNNFYPREAKVQWKVDNALQSGNSQESVTEQDSKDSTYSLSSTLTLSKADYEKHKVYACEVTHQGLSSPVTKSFNRGEC | – | – | – | – | ~85% | 4.12e-10 M
5 | KL2B870.CLF (antibody, human IgG1, kappa, low fucosylation of the Asn-297-linked N-oligosaccharide (expressed in fucosylation-deficient cells)) heavy: not shown light: DIQMTQSPSFLSASVGDRVTITCRASQGISSYLAWYQQKPGKAPKFLIYAASTLQSGVPSRFSGSGSGTEFTLTISSLQPEDFATYYCQQLNSYPLTFGGGTKVEIKRTVAAPSVFIFPPSDEQLKSGTASVVCLLNNFYPREAKVQWKVDNALQSGNSQESVTEQDSKDSTYSLSSTLTLSKADYEKHKVYACEVTHQGLSSPVTKSFNRGEC | – | – | – | – | ~89% | 3.54e-10 M
